From patent US20200079833A1 (AstraZeneca / MedImmune, published 2020)
Starred links: 1 amine or outer side, 2 acyl side, 3 side chain; linkers in the order of their positions; H or OH if unused. Non-standard residues stand in square brackets, D forms with d. Groups on a side chain read outwards from the residue. Primed or numbered codes have the meaning given here. No end group written: not given here. *: point of attachment. γGlu = O=C(O)[C@H](CCC(=O)[*:2])N[*:1]; Palmitoyl = CCCCCCCCCCCCCCCC(=O)*; αMeF = C[C@](N)(Cc1ccccc1)C(=O)O; αMeK = C[C@](N)(CCCCN)C(=O)O; Lauroyl = CCCCCCCCCCCC(=O)*; αMeS = C[C@](N)(CO)C(=O)O; PEG2′ = not defined here; Aib = CC(C)(N)C(=O)O

T1: GLP-1R in the INS1e assay (UniProt P32301 22-463, limits assumed)
T1 sequence (looked up): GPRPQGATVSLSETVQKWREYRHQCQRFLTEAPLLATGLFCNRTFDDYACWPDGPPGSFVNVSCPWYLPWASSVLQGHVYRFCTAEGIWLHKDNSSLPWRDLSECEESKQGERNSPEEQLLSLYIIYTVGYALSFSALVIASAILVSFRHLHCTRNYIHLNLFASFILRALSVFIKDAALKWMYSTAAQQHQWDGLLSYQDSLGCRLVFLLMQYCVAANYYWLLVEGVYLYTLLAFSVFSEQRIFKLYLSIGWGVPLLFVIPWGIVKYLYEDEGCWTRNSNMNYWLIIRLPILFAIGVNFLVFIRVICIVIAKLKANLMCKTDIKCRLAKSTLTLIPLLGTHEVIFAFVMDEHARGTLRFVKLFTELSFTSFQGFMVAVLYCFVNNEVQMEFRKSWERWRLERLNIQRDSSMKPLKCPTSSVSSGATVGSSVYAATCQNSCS

T2: glucose-dependent insulinotropic peptide (gastric inhibitory polypeptide) receptor (GIPR), primary cAMP assay (human, UniProt P48546 22-466)
T2 sequence (looked up): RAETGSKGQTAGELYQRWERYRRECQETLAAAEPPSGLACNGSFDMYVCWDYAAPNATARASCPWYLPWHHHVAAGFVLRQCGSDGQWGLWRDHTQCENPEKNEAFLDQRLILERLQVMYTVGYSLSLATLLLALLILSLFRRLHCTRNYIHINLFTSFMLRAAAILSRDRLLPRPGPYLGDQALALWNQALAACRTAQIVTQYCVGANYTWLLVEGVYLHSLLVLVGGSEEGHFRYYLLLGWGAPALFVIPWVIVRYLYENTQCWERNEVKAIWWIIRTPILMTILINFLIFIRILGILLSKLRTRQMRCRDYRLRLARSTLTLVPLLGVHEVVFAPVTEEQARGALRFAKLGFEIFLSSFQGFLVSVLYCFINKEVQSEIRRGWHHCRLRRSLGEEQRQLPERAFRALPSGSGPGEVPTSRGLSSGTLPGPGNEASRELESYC


target: T1, GLP-1R in the INS1e assay; experiment: cell-based or functional assay

Binder | INS1e assay EC50 (cAMP) Mean | INS1e assay EC50 (cAMP) n1 | INS1e assay EC50 (cAMP) n2
H[Aib]EGTFTSDVSK([PEG2′-PEG2′-γGlu-Lauroyl])FLEGEAAEEFIK([PEG2′-PEG2′-γGlu-Lauroyl])WVVEGG-NH2 [SEQ ID NO: 237] | 19.3 nM | 14.3 nM | 24.3 nM
H[Aib]EGTFTSDVSK([PEG2′-PEG2′-γGlu-Lauroyl])FLEGEAAEEFIK([PEG2′-PEG2′-γGlu-Lauroyl])FVVEGG-NH2 [SEQ ID NO: 239] | 13 nM | 14.7 nM | 11.2 nM
H[Aib]EGTFTSDVSK([PEG2′-PEG2′-γGlu-Lauroyl])YLEGEAAEEFIK([PEG2′-PEG2′-γGlu-Lauroyl])WVVEGG-NH2 [SEQ ID NO: 236] | 12.3 nM | 12 nM | 12.7 nM
H[Aib]EGTFTSDVSK([PEG2′-PEG2′-γGlu-Lauroyl])YLEGEAAEEFIK([PEG2′-PEG2′-γGlu-Lauroyl])FVVEGG-NH2 [SEQ ID NO: 238] | 13.7 nM | 15 nM | 12.4 nM
H[Aib]EGS[αMeF]TSDVSK([PEG2′-PEG2′-γGlu-Lauroyl])YLEGEAAEEFIK([PEG2′-PEG2′-γGlu-Lauroyl])WVVEGG-NH2 [SEQ ID NO: 240] | 6.02 nM | 6.86 nM | 5.17 nM

target: GLP-1 receptor (GLP-1R), primary cAMP assay (human, UniProt P43220 24-463); experiment: cell-based or functional assay

Binder | Primary assay EC50 (cAMP) Mean | Primary assay EC50 (cAMP), n1 | Primary assay EC50 (cAMP), n2
H[Aib]EGS[αMeF]TSDV[αMeS]SK([PEG2′-PEG2′-γGlu-Palmitoyl])LEGEAA[αMeK]EFIAWK([PEG2′-PEG2′-γGlu-Palmitoyl])VEGG-NH2 [SEQ ID NO: 267] | 569 pM | 628 pM | 510 pM
H[Aib]EGTFTSDVSK([PEG2′-PEG2′-γGlu-Lauroyl])FLEGEAAEEFIK([PEG2′-PEG2′-γGlu-Lauroyl])WVVEGG-NH2 [SEQ ID NO: 237] | 20.9 pM | 19.5 pM | 22.3 pM
H[Aib]EGTFTSDVSK([PEG2′-PEG2′-γGlu-Lauroyl])FLEGEAAEEFIK([PEG2′-PEG2′-γGlu-Lauroyl])FVVEGG-NH2 [SEQ ID NO: 239] | 7.4 pM | 6.3 pM | 8.45 pM
H[Aib]EGTFTSDVSK([PEG2′-PEG2′-γGlu-Lauroyl])YLEGEAAEEFIK([PEG2′-PEG2′-γGlu-Lauroyl])WVVEGG-NH2 [SEQ ID NO: 236] | 21.7 pM | 16.5 pM | 26.8 pM
H[Aib]EGTFTSDVSK([PEG2′-PEG2′-γGlu-Lauroyl])YLEGEAAEEFIK([PEG2′-PEG2′-γGlu-Lauroyl])FVVEGG-NH2 [SEQ ID NO: 238] | 11 pM | 8.75 pM | 13.2 pM
H[Aib]EGS[αMeF]TSDVSK([PEG2′-PEG2′-γGlu-Lauroyl])YLEGEAAEEFIK([PEG2′-PEG2′-γGlu-Lauroyl])WVVEGG-NH2 [SEQ ID NO: 240] | 14 pM | 10.9 pM | 17.1 pM

target: glucagon receptor (GCGR), primary cAMP assay (human, UniProt P47871 26-477); experiment: cell-based or functional assay
Sequence (P47871 26-477): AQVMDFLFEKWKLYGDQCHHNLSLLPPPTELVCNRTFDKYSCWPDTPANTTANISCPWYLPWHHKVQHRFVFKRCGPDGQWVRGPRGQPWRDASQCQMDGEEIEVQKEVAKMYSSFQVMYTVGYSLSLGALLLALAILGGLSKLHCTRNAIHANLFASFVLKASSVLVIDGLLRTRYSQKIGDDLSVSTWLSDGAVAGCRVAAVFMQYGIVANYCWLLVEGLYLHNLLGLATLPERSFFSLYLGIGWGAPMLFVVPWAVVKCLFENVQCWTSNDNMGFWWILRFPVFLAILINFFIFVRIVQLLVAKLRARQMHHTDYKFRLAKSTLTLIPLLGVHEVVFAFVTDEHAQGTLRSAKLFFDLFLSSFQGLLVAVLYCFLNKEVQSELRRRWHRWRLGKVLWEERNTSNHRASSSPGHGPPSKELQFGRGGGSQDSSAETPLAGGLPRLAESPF

Binder | Primary assay EC50 (cAMP), n1 | Primary assay EC50 (cAMP), n2
H[Aib]EGS[αMeF]TSDV[αMeS]SK([PEG2′-PEG2′-γGlu-Palmitoyl])LEGEAA[αMeK]EFIAWK([PEG2′-PEG2′-γGlu-Palmitoyl])VEGG-NH2 [SEQ ID NO: 267] | 21.7 nM | 21.7 nM
H[Aib]EGTFTSDVSK([PEG2′-PEG2′-γGlu-Lauroyl])FLEGEAAEEFIK([PEG2′-PEG2′-γGlu-Lauroyl])WVVEGG-NH2 [SEQ ID NO: 237] | 22.3 nM | 22.3 nM
H[Aib]EGTFTSDVSK([PEG2′-PEG2′-γGlu-Lauroyl])FLEGEAAEEFIK([PEG2′-PEG2′-γGlu-Lauroyl])FVVEGG-NH2 [SEQ ID NO: 239] | 22.5 nM | 22.5 nM
H[Aib]EGTFTSDVSK([PEG2′-PEG2′-γGlu-Lauroyl])YLEGEAAEEFIK([PEG2′-PEG2′-γGlu-Lauroyl])WVVEGG-NH2 [SEQ ID NO: 236] | 22.2 nM | 22.2 nM
H[Aib]EGTFTSDVSK([PEG2′-PEG2′-γGlu-Lauroyl])YLEGEAAEEFIK([PEG2′-PEG2′-γGlu-Lauroyl])FVVEGG-NH2 [SEQ ID NO: 238] | 22.4 nM | 22.4 nM
H[Aib]EGS[αMeF]TSDVSK([PEG2′-PEG2′-γGlu-Lauroyl])YLEGEAAEEFIK([PEG2′-PEG2′-γGlu-Lauroyl])WVVEGG-NH2 [SEQ ID NO: 240] | 22.2 nM | 22.2 nM

target: T2, glucose-dependent insulinotropic …; experiment: cell-based or functional assay

Binder | Primary assay EC50 (cAMP), n1 | Primary assay EC50 (cAMP), n2
H[Aib]EGS[αMeF]TSDV[αMeS]SK([PEG2′-PEG2′-γGlu-Palmitoyl])LEGEAA[αMeK]EFIAWK([PEG2′-PEG2′-γGlu-Palmitoyl])VEGG-NH2 [SEQ ID NO: 267] | 21.7 nM | 21.7 nM
H[Aib]EGTFTSDVSK([PEG2′-PEG2′-γGlu-Lauroyl])FLEGEAAEEFIK([PEG2′-PEG2′-γGlu-Lauroyl])WVVEGG-NH2 [SEQ ID NO: 237] | 22.3 nM | 22.3 nM
H[Aib]EGTFTSDVSK([PEG2′-PEG2′-γGlu-Lauroyl])FLEGEAAEEFIK([PEG2′-PEG2′-γGlu-Lauroyl])FVVEGG-NH2 [SEQ ID NO: 239] | 22.5 nM | 22.5 nM
H[Aib]EGTFTSDVSK([PEG2′-PEG2′-γGlu-Lauroyl])YLEGEAAEEFIK([PEG2′-PEG2′-γGlu-Lauroyl])WVVEGG-NH2 [SEQ ID NO: 236] | 22.2 nM | 22.2 nM
H[Aib]EGTFTSDVSK([PEG2′-PEG2′-γGlu-Lauroyl])YLEGEAAEEFIK([PEG2′-PEG2′-γGlu-Lauroyl])FVVEGG-NH2 [SEQ ID NO: 238] | 22.4 nM | 22.4 nM
H[Aib]EGS[αMeF]TSDVSK([PEG2′-PEG2′-γGlu-Lauroyl])YLEGEAAEEFIK([PEG2′-PEG2′-γGlu-Lauroyl])WVVEGG-NH2 [SEQ ID NO: 240] | 22.2 nM | 22.2 nM
